Source: US20190021294A1 (WAKE FOREST UNIVERSITY HEALTH SCIENCES, published 2019)

Target: the molecule itself
Assay: X-ray crystal structure of the TREX1 D18N-dsDNA complex (homodimer of protomers)
Description: Structure Determination. The mouse recombinant Trex1 enzyme (amino acids 1-242) was prepared and crystallized with a dsDNA oligonucleotide. The X-ray data were collected and processed as described further below.
Protein Crystallization and X-ray Data Collection. The TREX1 D18N mutant was crystallized using the sitting drop vapor diffusion technique. The protein was dialyzed in 20 mM MES (pH 6.5), 50 mM NaCl and concentrated to 10 mg/mL. The pseudo-palindromic oligonucleotide DNA used for crystallization (5′-[…]-3′ (SEQ ID NO:1, Operon)) was self-annealed in buffer consisting of 20 mM NaCl, 5 mM MgCl₂, and 5 mM MES, pH 6.5. The complex was formed by incubating dsDNA with the protein in a 1:1 ratio and 5 mM magnesium chloride. A volume of 1 μl protein complex at 4 mg/ml TREX1 was mixed with an equal volume of reservoir solution and placed on a bridge above 500 μl of the reservoir solution. Optimized crystals of the TREX1 D18N mutant grew in 0.1 M sodium acetate and 9% PEG 4000 at 25° C. Prior to data collection all crystals were immersed in reservoir solution containing 10% oil (1:1 mineral oil and pantone-N) in preparation for cryo-cooling. Crystals were mounted on a nylon loop and flash cooled to 100 K in a stream of liquid nitrogen.

B1: mouse recombinant TREX1 D18N enzyme (amino acids 1-242) (enzyme, Mus musculus, UniProt Q91XB0 1-242, looked up)
chain: MGSQTLPHGHMQTLIFLNLEATGLPSSRPEVTELCLLAVHRRALENTSISQGHPPPVPRPPRVVDKLSLCIAPGKACSPGASEITGLSKAELEVQGRQRFDDNLAILLRAFLQRQPQPCCLVAHNGDRYDFPLLQTELARLSTPSPLDGTFCVDSIAALKALEQASSPSGNGSRKSYSLGSIYTRLYWQAPTDSHTAEGDVLTLLSICQWKPQALLQWVDEHARPFSTVKPMYGTPATTGTT
notes: range 1-242; Written as one protomer, because the entry is the protomer-protomer association; also called TREX1 D18N mutant; TREX1 D18N protomer
B1: binds.
